Assay results published in paper PMC10397247.
Read-outs that look alike come from different tables or passages of the source. Blank lines part the entries; values can stand above or below the binder they belong to.

What was measured:
Assay in all cases: two-hybrid library CCmax;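 also: natural log of median RNA to DNA barcode read ratio; higher means stronger binding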
[1] = molecular target: T1, 4H1513-AA; conditions: mean of both orientations
T1 chain: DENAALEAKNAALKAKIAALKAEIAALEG

[2] = molecular target: T2, 4H1874-AA; conditions: mean of both orientations
T2 chain: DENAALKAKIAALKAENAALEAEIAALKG

[3] = molecular target: T3, 4H2277-AA; conditions: mean of both orientations
T3 chain: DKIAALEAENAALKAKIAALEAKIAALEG

[4] = molecular target: T4, 4H234-AA; conditions: mean of both orientations
T4 chain: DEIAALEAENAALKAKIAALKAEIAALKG

[5] = molecular target: T5, 4H2393-AA; conditions: mean of both orientations
T5 chain: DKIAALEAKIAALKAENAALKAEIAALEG

[6] = molecular target: T6, 4H2466-AA; conditions: mean of both orientations
T6 chain: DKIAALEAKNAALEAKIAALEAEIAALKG

[7] = molecular target: T7, 4H2505-AA; conditions: mean of both orientations
T7 chain: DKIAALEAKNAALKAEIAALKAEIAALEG

[8] = molecular target: T8, 4H2620-AA; conditions: mean of both orientations
T8 chain: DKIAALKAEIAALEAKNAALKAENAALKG

[9] = molecular target: T9, 4H2754-AA; conditions: mean of both orientations
T9 chain: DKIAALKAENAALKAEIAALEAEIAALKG

[10] = molecular target: T10, 4H2949-AA; conditions: mean of both orientations
T10 chain: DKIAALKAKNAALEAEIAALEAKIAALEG

[11] = molecular target: T11, 4H3378-AA; conditions: mean of both orientations
T11 chain: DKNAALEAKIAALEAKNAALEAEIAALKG

[12] = molecular target: T12, 4H3413-AA; conditions: mean of both orientations
T12 chain: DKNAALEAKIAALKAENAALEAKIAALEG

[13] = molecular target: T13, 4H342-AA; conditions: mean of both orientations
T13 chain: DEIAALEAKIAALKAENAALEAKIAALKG

[14] = molecular target: T14, 4H3844-AA; conditions: mean of both orientations
T14 chain: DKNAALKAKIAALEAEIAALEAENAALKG

[15] = molecular target: T15, 4H429-AA; conditions: mean of both orientations
T15 chain: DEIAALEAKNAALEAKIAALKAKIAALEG

[16] = molecular target: T16, 4H566-AA; conditions: mean of both orientations
T16 chain: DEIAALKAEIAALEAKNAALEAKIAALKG

[17] = molecular target: T17, 4H605-AA; conditions: mean of both orientations
T17 chain: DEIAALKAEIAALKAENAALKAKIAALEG

[18] = molecular target: T18, 4H881-AA; conditions: mean of both orientations
T18 chain: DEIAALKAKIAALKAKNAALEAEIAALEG

[19] = molecular target: T19, 4H171-AA
T19 chain: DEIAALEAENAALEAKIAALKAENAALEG

[20] = molecular target: T20, 4H174-AA; conditions: mean of both orientations
T20 chain: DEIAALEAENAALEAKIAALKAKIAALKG

[21] = molecular target: T21, 4H1842-AA; conditions: mean of both orientations
T21 chain: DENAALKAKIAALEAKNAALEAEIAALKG

[22] = molecular target: T22, 4H2109-AA
T22 chain: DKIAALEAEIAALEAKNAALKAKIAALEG

[23] = molecular target: T23, O13-AA; conditions: mean of both orientations
T23 chain: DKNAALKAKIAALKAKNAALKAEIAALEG

[24] = molecular target: T24, 4H2592-AA; conditions: mean of both orientations
T24 chain: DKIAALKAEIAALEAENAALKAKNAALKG

[25] = molecular target: T25, 4H3015-AA; conditions: mean of both orientations
T25 chain: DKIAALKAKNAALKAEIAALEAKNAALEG

[26] = molecular target: T26, 4H3073-AA
T26 chain: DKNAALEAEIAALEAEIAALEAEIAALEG

[27] = molecular target: T27, 4H406-AA; conditions: mean of both orientations
T27 chain: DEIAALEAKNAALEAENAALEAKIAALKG

[28] = molecular target: T28, 4H452-AA; conditions: mean of both orientations
T28 chain: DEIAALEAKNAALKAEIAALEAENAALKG

[29] = molecular target: T29, 4H1385-AA
T29 chain: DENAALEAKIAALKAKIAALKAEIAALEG

[30] = molecular target: T30, 4H1478-AA; conditions: mean of both orientations
T30 chain: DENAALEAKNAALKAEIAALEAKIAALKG

[31] = molecular target: T31, 4H1579-AA; conditions: mean of both orientations
T31 chain: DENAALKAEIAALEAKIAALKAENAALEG

[32] = molecular target: T32, 4H3782-AA; conditions: mean of both orientations
T32 chain: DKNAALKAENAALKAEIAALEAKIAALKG

[33] = molecular target: T33, 4H1351-AA; conditions: mean of both orientations
T33 chain: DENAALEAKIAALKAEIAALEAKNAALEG

[34] = molecular target: T34, 4H2728-AA; conditions: mean of both orientations
T34 chain: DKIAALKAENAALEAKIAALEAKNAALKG

[35] = molecular target: T35, 4H2903-AA; conditions: mean of both orientations
T35 chain: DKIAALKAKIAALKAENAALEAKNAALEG

[36] = molecular target: T36, 4H341-AA; conditions: mean of both orientations
T36 chain: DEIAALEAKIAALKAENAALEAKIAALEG

[37] = molecular target: T37, 4H3414-AA; conditions: mean of both orientations
T37 chain: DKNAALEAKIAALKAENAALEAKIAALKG

[38] = molecular target: T38, 4H3595-AA
T38 chain: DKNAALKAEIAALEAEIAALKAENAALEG

[39] = molecular target: T39, 4H3629-AA; conditions: mean of both orientations
T39 chain: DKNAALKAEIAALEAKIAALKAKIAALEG

[40] = molecular target: T40, 4H380-AA; conditions: mean of both orientations
T40 chain: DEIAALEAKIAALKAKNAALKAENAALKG

[41] = molecular target: T41, 4H446-AA; conditions: mean of both orientations
T41 chain: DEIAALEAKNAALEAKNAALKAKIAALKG

[42] = molecular target: T42, 4H464-AA
T42 chain: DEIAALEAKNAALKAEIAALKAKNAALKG

[43] = molecular target: T43, 4H63-AA; conditions: mean of both orientations
T43 chain: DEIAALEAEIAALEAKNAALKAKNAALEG

B2: 4H171-AA (peptide)
chain: DEIAALEAENAALEAKIAALKAENAALEG
interaction score [19]: -1.01
interaction score [20]: -1.16
interaction score [21]: -1.26
interaction score ([22]; mean of both orientations): -0.826
interaction score [23]: 2.21

B9: 4H1350-AA (peptide)
chain: DENAALEAKIAALKAEIAALEAKIAALKG
interaction score ([29]; mean of both orientations): 2.18
interaction score [23]: 0.34

B10: 4H1153-AA (peptide)
chain: DENAALEAENAALEAEIAALEAEIAALEG
interaction score [33]: -1.51
interaction score [1]: 1.5
interaction score [2]: -1.61
interaction score [3]: -1.07
interaction score [4]: 0.621
interaction score [5]: -1.3
interaction score [6]: -1.53
interaction score [7]: 0.301
interaction score [8]: -1.41
interaction score [9]: -0.638
interaction score [10]: -0.947
interaction score [11]: -1.72
interaction score [12]: -1.92
interaction score [13]: -1.39
interaction score [14]: -0.484
interaction score [15]: 0.137
interaction score [16]: -1.5
interaction score [17]: -1.75
interaction score [18]: -1.26

B11: 4H249-AA (peptide)
chain: DEIAALEAENAALKAKNAALKAEIAALEG
interaction score [24]: -0.437
interaction score [34]: -0.387
interaction score [35]: -0.757
interaction score [25]: -1.1
interaction score ([26]; mean of both orientations): -1.75
interaction score [36]: 0.538
interaction score [37]: 0.535
interaction score ([38]; mean of both orientations): -1.4
interaction score [39]: -1.69
interaction score [32]: 1.43
interaction score [40]: -1.27
interaction score [27]: 1.19
interaction score [41]: -1.26
interaction score [28]: -1.53
interaction score ([42]; mean of both orientations): -1.77
interaction score [43]: -1.75

B12: 4H1064-AA (peptide)
chain: DENAALEAEIAALEAKIAALEAKNAALKG
interaction score [34]: -1.43
interaction score [35]: 1.45
interaction score [36]: -1.26
interaction score [37]: -0.952
interaction score [38]: 0.0501
interaction score [39]: 0.654
interaction score [32]: -0.855
interaction score [40]: -0.648
interaction score [41]: -1.26
interaction score [42]: -1.84
interaction score [43]: -1.29

B13: 4H1142-AA (peptide)
chain: DENAALEAEIAALKAKNAALEAKIAALKG
interaction score [33]: -1.31
interaction score [29]: -1.1
interaction score [30]: -0.804
interaction score [1]: -1.67
interaction score [31]: -1.39
interaction score ([19]; mean of both orientations): -1.36
interaction score [20]: -0.4
interaction score [21]: -0.709
interaction score [2]: 0.966
interaction score [22]: 0.249
interaction score [8]: -1.34
interaction score [11]: -0.868
interaction score [12]: 0.554

B14: 4H1257-AA (peptide)
chain: DENAALEAENAALKAKIAALKAEIAALEG
interaction score [34]: -0.459
interaction score [35]: -1.62
interaction score [36]: -1.24
interaction score [37]: -1.01
interaction score ([38]; mean of both orientations): 0.807
interaction score [39]: 0.329
interaction score [32]: 2.21
interaction score [40]: -1.14
interaction score [41]: -1.65
interaction score ([42]; mean of both orientations): -1.07
interaction score [43]: -1.72

Second part, the binder after the results:

interaction score [1]: -1.9
interaction score [2]: 1.26
interaction score [3]: -1.59
interaction score [4]: 0.335
interaction score [5]: -1.43
interaction score [6]: -1.54
interaction score [7]: -1.67
interaction score [8]: -1.63
interaction score [9]: -1.71
interaction score [10]: 0.393
interaction score [11]: -0.723
interaction score [12]: 0.857
interaction score [13]: 2.15
interaction score [14]: -0.79
interaction score [15]: 0.239
interaction score [16]: 1.79
interaction score [17]: -1.38
interaction score [18]: -0.879
B1: 4H1401-AA (peptide)
chain: DENAALEAKIAALKAKNAALKAEIAALEG

interaction score [3]: -1.36
interaction score [4]: -1.27
interaction score [5]: -0.392
interaction score [6]: -1.49
interaction score [7]: -1.7
interaction score [24]: -0.973
interaction score [9]: -0.0505
interaction score [10]: -1.21
interaction score [25]: -1.54
interaction score [26]: -1.45
interaction score [13]: 1.73
interaction score [14]: -1.35
interaction score [27]: -1.15
interaction score [15]: -1.87
interaction score [28]: -1.51
interaction score [16]: 0.482
interaction score [17]: -1.15
interaction score [18]: 0.00404
B3: 4H2165-AA (peptide)
chain: DKIAALEAEIAALKAKNAALEAKIAALEG

interaction score ([19]; mean of both orientations): -1.66
interaction score [20]: -1.63
interaction score [21]: -1.57
interaction score ([22]; mean of both orientations): -1.51
interaction score [24]: -1.24
interaction score [27]: -1.8
B4: 4H1626-AA (peptide)
chain: DENAALKAEIAALKAENAALKAEIAALKG

interaction score [29]: 2.06
interaction score [30]: 0.852
interaction score [31]: -0.0818
interaction score ([19]; mean of both orientations): -0.131
interaction score [20]: 0.819
interaction score [21]: -1.47
interaction score ([22]; mean of both orientations): 0.64
interaction score [23]: -1.62
B5: 4H1385-AA (peptide)
chain: DENAALEAKIAALKAKIAALKAEIAALEG

interaction score [6]: -1.68
interaction score [24]: -1.61
interaction score [25]: -1.11
interaction score ([26]; mean of both orientations): -0.681
interaction score [27]: -1.67
interaction score [28]: -1.74
B6: 4H2253-AA (peptide)
chain: DKIAALEAENAALKAEIAALKAKIAALEG

interaction score [2]: -1.25
interaction score [8]: -1.86
interaction score [11]: -1.04
interaction score [12]: -0.729
interaction score [32]: -1.6
B7: 4H1845-AA (peptide)
chain: DENAALKAKIAALEAKNAALEAKIAALEG

interaction score [14]: -1.17
interaction score [15]: 0.643
interaction score [16]: -0.683
interaction score [17]: 0.159
interaction score [18]: 2.32
B8: 4H3606-AA (peptide)
chain: DKNAALKAEIAALEAENAALEAKIAALKG
